What was measured:
Assay in all cases: SPR; KD of SG1 / KD of variant;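 further: relative to parent M103205H795-SG1 carrying the SG1 human heavy chain constant region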
[1] = target: T1, cynomolgus monkey FcγRIIIaS extracellular domain, His-tagged (cynomolgus monkey, UniProt Q8SPW2 21-206 at identity 1.00))
T1 construct: also called cyno FcγRIIIaS; cynoFcγRIIIaS
T1 chain: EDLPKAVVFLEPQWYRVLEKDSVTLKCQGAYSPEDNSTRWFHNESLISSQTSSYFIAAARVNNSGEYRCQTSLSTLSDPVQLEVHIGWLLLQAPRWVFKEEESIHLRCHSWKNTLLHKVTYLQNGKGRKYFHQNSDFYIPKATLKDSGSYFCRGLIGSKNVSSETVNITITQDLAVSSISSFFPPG

[2] = target: T2, cynomolgus monkey FcγRIIa1 extracellular domain, His-tagged (cynomolgus monkey)
T2 construct: also called cyno FcγRIIa1; cynoFcgRIIa1
T2 chain: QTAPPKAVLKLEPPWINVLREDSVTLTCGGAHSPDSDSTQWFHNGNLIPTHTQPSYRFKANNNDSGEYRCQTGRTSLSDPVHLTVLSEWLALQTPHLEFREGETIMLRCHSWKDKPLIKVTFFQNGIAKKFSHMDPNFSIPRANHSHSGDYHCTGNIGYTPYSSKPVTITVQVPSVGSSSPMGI

[3] = target: T3, human FcγRIIaH extracellular domain, His-tagged (human, UniProt P12318 34-217)
T3 construct: also called human FcγRIIa (type H); FcgRIIaH
T3 sequence: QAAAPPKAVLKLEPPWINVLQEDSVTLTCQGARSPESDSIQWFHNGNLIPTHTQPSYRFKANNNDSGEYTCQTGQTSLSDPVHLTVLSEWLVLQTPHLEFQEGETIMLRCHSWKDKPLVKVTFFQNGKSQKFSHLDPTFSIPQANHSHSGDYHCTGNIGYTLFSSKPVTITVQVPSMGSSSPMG

[4] = target: T4, human FcγRIIIaV extracellular domain, His-tagged (human, UniProt P08637 17-208)
T4 construct: also called FcgRIIIaV

[5] = target: T5, cynomolgus monkey FcγRIIa3 extracellular domain, His-tagged (cynomolgus monkey)
T5 construct: also called cyno FcγRIIa3; cynoFcgRIIa3
T5 chain: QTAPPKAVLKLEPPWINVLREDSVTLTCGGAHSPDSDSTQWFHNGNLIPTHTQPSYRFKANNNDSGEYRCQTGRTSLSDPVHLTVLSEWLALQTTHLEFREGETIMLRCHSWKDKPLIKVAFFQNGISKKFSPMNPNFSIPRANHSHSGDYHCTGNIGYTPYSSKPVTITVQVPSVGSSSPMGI

[6] = target: T6, human FcγRIIaR extracellular domain, His-tagged (human, UniProt P12318 34-217)
T6 construct: also called human FcγRIIa (type R); FcgRIIaR
T6 chain: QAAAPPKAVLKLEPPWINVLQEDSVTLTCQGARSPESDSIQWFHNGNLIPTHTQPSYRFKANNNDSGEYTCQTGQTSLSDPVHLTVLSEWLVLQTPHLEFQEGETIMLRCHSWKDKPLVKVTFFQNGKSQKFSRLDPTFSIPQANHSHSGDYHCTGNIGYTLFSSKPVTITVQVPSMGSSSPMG

[7] = target: T7, cynomolgus monkey FcγRIIa2 extracellular domain, His-tagged (cynomolgus monkey)
T7 construct: also called cyno FcγRIIa2; cynoFcgRIIa2
T7 chain: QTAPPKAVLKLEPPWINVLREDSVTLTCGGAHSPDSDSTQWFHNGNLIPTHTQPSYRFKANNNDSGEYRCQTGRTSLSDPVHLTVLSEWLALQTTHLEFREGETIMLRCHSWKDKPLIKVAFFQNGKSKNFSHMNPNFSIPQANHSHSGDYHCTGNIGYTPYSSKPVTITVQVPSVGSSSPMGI

[8] = target: T8, cynomolgus monkey FcγRIIb extracellular domain, His-tagged (cynomolgus monkey)
T8 construct: also called cyno FcγRIIb; cynoFcγRIIb
T8 chain: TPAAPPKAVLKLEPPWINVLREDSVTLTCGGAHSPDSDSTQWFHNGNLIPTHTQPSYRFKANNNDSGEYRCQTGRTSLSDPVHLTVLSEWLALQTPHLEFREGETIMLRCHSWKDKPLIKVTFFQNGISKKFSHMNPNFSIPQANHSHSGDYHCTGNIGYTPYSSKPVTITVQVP

T4 sequence (P08637 17-208 F176V): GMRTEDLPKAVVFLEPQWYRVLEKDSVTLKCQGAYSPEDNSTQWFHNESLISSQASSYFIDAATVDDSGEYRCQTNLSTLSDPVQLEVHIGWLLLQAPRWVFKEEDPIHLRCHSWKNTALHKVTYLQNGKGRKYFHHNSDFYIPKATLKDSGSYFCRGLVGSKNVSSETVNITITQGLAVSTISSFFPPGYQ

Binder | KD fold (SG1 = 1) [1] [fold] | KD fold (SG1 = 1) [2] [fold] | KD fold (SG1 = 1) [3] [fold] | KD fold (SG1 = 1) [4] [fold] | KD fold (SG1 = 1) [5] [fold] | KD fold (SG1 = 1) [6] [fold] | KD fold (SG1 = 1) [7] [fold] | KD fold (SG1 = 1) [8] [fold]
M103205H795-MY006/M103202L889-SK1 (antibody, human IgG1, kappa, Substitution put into M103205H795-SG1) heavy: not shown light: DIVMTQSPATLSLSPGERATLSCTSSQSVYHANWLSWFQQKPGQPPKLLIYWASTLAYGVPSRFSGSGSGTDFTLTISSLQPEDAATYYCAGGYGGGRYAFGQGTKVEIKRTVAAPSVFIFPPSDEQLKSGTASVVCLLNNFYPREAKVQWKVDNALQSGNSQESVTEQDSKDSTYSLSSTLTLSKADYEKHKVYACEVTHQGLSSPVTKSFNRGEC | 1.13 | 1.6 | 0.5 | 1.12 | 4.7 | 0.6 | 2.7 | 2
M103205H795-MY008/M103202L889-SK1 (antibody, human IgG1, kappa, Substitution put into M103205H795-SG1) heavy: not shown light: DIVMTQSPATLSLSPGERATLSCTSSQSVYHANWLSWFQQKPGQPPKLLIYWASTLAYGVPSRFSGSGSGTDFTLTISSLQPEDAATYYCAGGYGGGRYAFGQGTKVEIKRTVAAPSVFIFPPSDEQLKSGTASVVCLLNNFYPREAKVQWKVDNALQSGNSQESVTEQDSKDSTYSLSSTLTLSKADYEKHKVYACEVTHQGLSSPVTKSFNRGEC | 0.97 | 0.8 | 0.4 | 1.29 | 0.7 | 0.6 | 1.4 | 1.1
M103205H795-MY013/M103202L889-SK1 (antibody, human IgG1, kappa, Substitution put into M103205H795-SG1) heavy: not shown light: DIVMTQSPATLSLSPGERATLSCTSSQSVYHANWLSWFQQKPGQPPKLLIYWASTLAYGVPSRFSGSGSGTDFTLTISSLQPEDAATYYCAGGYGGGRYAFGQGTKVEIKRTVAAPSVFIFPPSDEQLKSGTASVVCLLNNFYPREAKVQWKVDNALQSGNSQESVTEQDSKDSTYSLSSTLTLSKADYEKHKVYACEVTHQGLSSPVTKSFNRGEC | 1.09 | 0.7 | 0.3 | 1.98 | 0.3 | 0.2 | 1.1 | 0.9
M103205H795-MY010/M103202L889-SK1 (antibody, human IgG1, kappa, Substitution put into M103205H795-SG1) heavy: not shown light: DIVMTQSPATLSLSPGERATLSCTSSQSVYHANWLSWFQQKPGQPPKLLIYWASTLAYGVPSRFSGSGSGTDFTLTISSLQPEDAATYYCAGGYGGGRYAFGQGTKVEIKRTVAAPSVFIFPPSDEQLKSGTASVVCLLNNFYPREAKVQWKVDNALQSGNSQESVTEQDSKDSTYSLSSTLTLSKADYEKHKVYACEVTHQGLSSPVTKSFNRGEC | 1.64 | 0.5 | 0.6 | 3.68 | 1.2 | 0.6 | 1 | 0.5

Continued, values first:

KD fold (SG1 = 1) [1] [fold] | KD fold (SG1 = 1) [2] [fold] | KD fold (SG1 = 1) [3] [fold] | KD fold (SG1 = 1) [4] [fold] | KD fold (SG1 = 1) [5] [fold] | KD fold (SG1 = 1) [6] [fold] | KD fold (SG1 = 1) [7] [fold] | KD fold (SG1 = 1) [8] [fold] | Binder
1.8 | 0.8 | 0.6 | 2.15 | 1.5 | 1.2 | 1.1 | 0.8 | M103205H795-MY037/M103202L889-SK1 (antibody, human IgG1, kappa, Substitution put into M103205H795-SG1) heavy: not shown light: DIVMTQSPATLSLSPGERATLSCTSSQSVYHANWLSWFQQKPGQPPKLLIYWASTLAYGVPSRFSGSGSGTDFTLTISSLQPEDAATYYCAGGYGGGRYAFGQGTKVEIKRTVAAPSVFIFPPSDEQLKSGTASVVCLLNNFYPREAKVQWKVDNALQSGNSQESVTEQDSKDSTYSLSSTLTLSKADYEKHKVYACEVTHQGLSSPVTKSFNRGEC
1.57 | 1.1 | 0.8 | 2.15 | 5.3 | 1.2 | 1.5 | 1.1 | M103205H795-MY016/M103202L889-SK1 (antibody, human IgG1, kappa, Substitution put into M103205H795-SG1) heavy: not shown light: DIVMTQSPATLSLSPGERATLSCTSSQSVYHANWLSWFQQKPGQPPKLLIYWASTLAYGVPSRFSGSGSGTDFTLTISSLQPEDAATYYCAGGYGGGRYAFGQGTKVEIKRTVAAPSVFIFPPSDEQLKSGTASVVCLLNNFYPREAKVQWKVDNALQSGNSQESVTEQDSKDSTYSLSSTLTLSKADYEKHKVYACEVTHQGLSSPVTKSFNRGEC
0.9 | 1.3 | 1.3 | 1.17 | 1.4 | 1.1 | 2 | 1.2 | M103205H795-MY014/M103202L889-SK1 (antibody, human IgG1, kappa, Substitution put into M103205H795-SG1) heavy: not shown light: DIVMTQSPATLSLSPGERATLSCTSSQSVYHANWLSWFQQKPGQPPKLLIYWASTLAYGVPSRFSGSGSGTDFTLTISSLQPEDAATYYCAGGYGGGRYAFGQGTKVEIKRTVAAPSVFIFPPSDEQLKSGTASVVCLLNNFYPREAKVQWKVDNALQSGNSQESVTEQDSKDSTYSLSSTLTLSKADYEKHKVYACEVTHQGLSSPVTKSFNRGEC
1.16 | 0.8 | 0.6 | 1.47 | 1.5 | 0.7 | 1.1 | 0.9 | M103205H795-MY038/M103202L889-SK1 (antibody, human IgG1, kappa, Substitution put into M103205H795-SG1) heavy: not shown light: DIVMTQSPATLSLSPGERATLSCTSSQSVYHANWLSWFQQKPGQPPKLLIYWASTLAYGVPSRFSGSGSGTDFTLTISSLQPEDAATYYCAGGYGGGRYAFGQGTKVEIKRTVAAPSVFIFPPSDEQLKSGTASVVCLLNNFYPREAKVQWKVDNALQSGNSQESVTEQDSKDSTYSLSSTLTLSKADYEKHKVYACEVTHQGLSSPVTKSFNRGEC
1.38 | 0.8 | 0.4 | 1.69 | 2.3 | 0.9 | 1.2 | 0.5 | M103205H795-MY041/M103202L889-SK1 (antibody, human IgG1, kappa, Substitution put into M103205H795-SG1) heavy: not shown light: DIVMTQSPATLSLSPGERATLSCTSSQSVYHANWLSWFQQKPGQPPKLLIYWASTLAYGVPSRFSGSGSGTDFTLTISSLQPEDAATYYCAGGYGGGRYAFGQGTKVEIKRTVAAPSVFIFPPSDEQLKSGTASVVCLLNNFYPREAKVQWKVDNALQSGNSQESVTEQDSKDSTYSLSSTLTLSKADYEKHKVYACEVTHQGLSSPVTKSFNRGEC

From US20200317768A1 (published 2020)
